Experiment: soluble on expression in E. coli; label from the status in PepcDB or PDB records

| Sequence | soluble on expression in E. coli |
| --- | --- |
| MADVATKHPMEDEVKKTEASSLVGKLETDVEIKASADKFHHMFAGKPHHVSKASPGNIQGCDLHEGDWGTVGSIVFWNYVHDGEAKVAKERIEAVEPDKNLITFRVIEGDLMKEYKSFLLTIQVTPKPGGPGSIVHWHLEYEKISEEVAHPETLLQFCVEVSKEIDEHLLAEEEEVKTPETPSLVGKLETDVEIKASAEKFHHMFAGKPHHVSKASPGNIQGCDLHEGDWGQVGSIVFWNYVHGKEAKVAKERIEAVEPNKNLITFRVIDGDLMKEYKSFLLTIQVTPKLGGPGSIVHWHLEYEKISEEVAHPETLLQFCVEVSKEIDEHLLAEE | soluble |
| MADPLSKEEDIQHRPDSPPLGLLDPSRIQNPLANDQLHQVPQQQNPSGFVMPEQPRQQPPPQTWQRTPTMSPANIFQGGSGTPGSQRSSTGTPNHQMGNPPQHQQQQFFHGESPAHSQGTPMTPQSAGMPGSNCGTPQSAGGPPTSVPYDYQQAQMQQQQHAQAMAAAAAAQQQQQQHLQQQQYAQNPQQMHDSPYRQHQMMQMHQHPGHPSQYPPGYPQQQAAQWQQQMYARQAAAQAQAQAQAQAQAQAQQRAAAQRVPVPYPPGAYPPGMPGPMTPGYPAQAPAAPRTTPGSAGPGTGPPGTPQRPQYPQGTNPQPQQAQFTYPPTQQMTPTGQPPGYPGMPGTPTFSSPAHQMFRQGQPTAPPGMRQYISPQAGQQQPTPGTPHRFAPPGPSGTTSSPHFAPGAPGADLRSPSLMSPNQQSQQHTPVLPRSLHNEMTSHGMRPIALPSQPLPQTQGTPQPILSASSLPPQSAGATQFVYRPQQPNQMNTMNQMNQMHHDVNPFPIQMNVDPELYLTGIHFHCFDSEKLFEDKLDRKNLEFMIKYHGGDIEFEASKFHERIHQITHVLVDSCRNTNVMTSLEHRKRIVSIQWIIDVMERERVELPWRIAHLPPPFNENFRPYLGKLFSLSGFDSSERAAISFMAEMMGAKITPFLARQNDLLIAKQPADKVTRAQEWKVPVVNFQWIADAYVCDEASPQKRPNVENPRYQLENPVMTNVNTSPNHIEGASQEFGAMMSCWKSQTIIADQAYEKARQNRKTLQNNTFFFPSKRLSDQAVAPTEDEIKSSRARLDEIKTHWEEHQEKMKDTPLSKEFYRVREPQARVSAWFGEGIDDEALTILKKKLEFLGGECVEKIRDATHVILISGRRSLVLLESIIRGKNIMDPEWIVDSYKQKMWLDTLDYFLHDKELEKEFAYNCKRSVLRARNKPVFEDIEFHVTRFVEPNQNDLVRLIELGGGNVHSEKPDPKYLAKCVETEQPFIIISCENDARFLSYLAGSKLPIYNVDLVLFAMLRQQIEPLPQYRIPIPIVVKTPVFRQPPPYTAPPKDQEPAASLASEPTRAADVLSENS | not soluble |
| MEAVRPDSCESGPAAPRAEERPAPEARVHFRVTRFIMEAGVKLGMQSIPIATACTIYHKFFCEINLDAYDLYLVAMSSIYLAGKVEEQHLRTRDIINVSHRYFNPGSEPLELDSRFWELRDSIVQCELLMLRVLRFQVSFQHPHKYLLHYLISLKNWLNRYSWQRTPISVTAWALLRDSYHGGLCLRFQAQHLAVAVLYLALQVYGVEVPAEGEAEKPWWQVFSDDLTKPIIDNIVSDLIQIYTMDTEIP | not soluble |
| KAFTPDEAARFYAAARADRWGWPLAFMLATGLRPGEALGLTWADVTMRGSAEGGTLAAVVHIERTRSVSGGRVYEDTPKTERGRRSLTVTGDAARLLLDARAQAEREAGARLRHNGREYQSTGYVFVTRAGTPYRPDNLRRPMARLCQAVGVPVLTPHKLRHTWASVQAAAGVPVEVLSAELGHAAPSFTRDTYRHVYESERASLTYDPLTPAAAPAPEPEPQGRKRV | not soluble |
| MGSSHHHHHHSSGLVPRGSHMNTNSNTMVMNDANQAQITATFTKKILAHLDDPDSNKLAQFVQLFNPNNCRIIFNATPFAQATVFLQMWQNQVVQTQHALTGVDYHAIPGSGTLICNVNCKVRFDESGRDKMGQDATVPIQPNNTGNRNRPNDMNKPRPLWGPYFGISLQLIIDDRIFRNDFNGVISGFNYNMVYKPEDSLLKI | soluble |
| MGSDKIHHHHHHMENQEKPLSVDEEYDLWKSNVPLMYDFVSETRLTWPSLTVQWLPTPVQELDGGFIKQELIIGTHTSGEEENYLKFAEINLPKEILSNEDPQEEAGEEYQSSLPAPRSNIRITAKYEHEEEITRARYMPQDPNIVATINGQGTVFLYSRSEGLQSTLKFHKDNGYALSFSTLVKGRLLSGSDDHTVALWEVGSGGDPTKPVRTWNDLHSDIINDNKWHNFNKDLFGTVSEDSLLKINDVRANNTTIDTVKCPQPFNTLAFSHHSSNLLAAAGMDSYVYLYDLRNMKEPLHHMSGHEDAVNNLEFSTHVDGVVVSSGSDNRLMMWDLKQIGAEQTPDDAEDGVPELIMVHAGHRSSVNDFDLNPQIPWLVASAEEENILQVWKCSHSLPIVGGPPKVNKDIIS | not soluble |
| MTLCAMYNISMAGSHPTTICVVMDRFLESFSELYDIIDENDTDVMMDFISRFARTDEIMPEDKTVGFVVVNADKKLMSVSFSDIDENMKKVIKATAEKFKNKGFKVETDM | soluble |
| MGSDKIHHHHHHMRKISVFDTTLRDGEQSAGVNLNFEEKMEIAKQLERLGVDIIEAGFPASSQGDFQSVKAIAETVKGSSVTGLARSVQKDIDAAWEALKSAEEPRIHLFIATSPIHMEHKLRMTPEQVIEKAVESVKYAASRFKHVQWSAEDASRSDFPFLAQIIEAVIQAGATVINLPDTVGYTTPQEIKRMFQYMKQNVPSIDKVSLSTHNHDDLGMAVANSLAAIQGGADQVECTINGIGERAGNASLEEIAVALNIRKDHYETETGLILKEIKRTSSLVSKLTGMVVPNNKAVVGANAFAHESGIHQDGVLKNKQTYEIITPEMVGVSSNSMVLGKHSGRHAFKTKVQELGFTGTDEQLNNIFKAFKDLADKKKEITEDDLFALMTEQTVGGETNHYELQTLQVNYGSNLTNTATITMKLPSGEVAEEAATGSGSVEAIYNTLERLLDAPVKLLDYRIQSITGGRDALADVYVQMDYQGVVSSGRGTAHDVLEASAKAYLNAVNRTINRKKYAEVYGSKVEV | not soluble |
| GSGGARGLYLQTVTYNFLKEQGDNRIVRTQALPATRGTVSDRNGAVLALSAPTESLFAVPKDMKEMPSAAQLERLSELVDVPVDVLRNKLEQKGKSFIWIKRQLDPKVAEEVKALGLENFVFEKELKRHYPMGNLFAHVIGFTDIDGKGQEGLELSLEDSLYGEDGAEVVLRDRQGNIVDSLDSPRNKAPQNGKDIILSLDQRIQTLAYEELNKAVEYHQAKAGTVVVLDARTGEILALANTPAYDPNRPGRADSEQRRNRAVTDMIEPGSAIKPFVIAKALDAGKTDLNERLNTQPYKIGPSPVRDTHVYPSLDVRGIMQKSSNVGTSKLSARFGAEEMYDFYHELGIGVRMHSGFPGETAGLLRNWRRWRPIEQATMSFGYGLQLSLLQLARAYTALTHDGVLLPLSFEKQAVAPQGKRIFKESTAREVRNLMVSVTEPGGTGTAGAVDGFDVGAKTGTARKFVNGRYADNKHVATFIGFAPAKNPRVIVAVTIDEPTAHGYYGGVVAGPPFKKIMGGSLNILGISPTKPLTAAAVKTPS | soluble |
| MGSDKIHHHHHHMSNVTAEQKKEVKGRGFLPSRDGEHFAARIITVNGVINASQAKKIAEAAEKFGNGQLAFTTRLTVELPGVKFEDIEALSEFIASENLITGGTGSRVRPVVACKGTVCVHGLADTQALAAEIHEEFYKNWYDVKLPHKFKIGVGGCPNNCIKPDLNDLGIVGQRVPDYDSELCVGCKKCAVVEVCPVKAAKLTDKGKLEIDSNLCNNCGKCIESCNFDSIEEKESGYKVYIGGKWGKSVRPGTQIDRLFSKEELMTLIEKAILLFREQGNTGERFGITIDRIGADKFIEMLLSDEVLERKEEILEALLHLTGGAVC | not soluble |
| MNQPDISTLVQRIEQLELNQSRLRILLSHAPEKHKAFDKACYVANLSFEQEAHVRQTILDFLDSDKEDINELLSSIEAIVRYTVDAKSLISGFKMRGTAPDRWKQIDPHNEC | not soluble |
| MKKCNIMIVGVGGQGTLLASRIIGNVALKQNYDVKVSEVHGMSQRGGSVVTYVKIGDKVYSPIIEKGEADIIMAFEMLEALRWAEYLKEDGKLLVNEQKINPMPVIIGKEKYPENIMQMLKENYKNVISLDALKIARECKNIKAVNTVLIGLLAKVLEIDKEVWIESIKEVVPSKAVDVNLKAFEEGYSRG | soluble |
| MGSDKIHHHHHHMQRQTELKNWLQTVYPERDFDLSFAAADADFRRYFRAAFSDGGSVVCMDAPPDKMSVAPYLKVQKLFDMVNVPQVLHADTDLGFVVLNDLGNTTFLTAMLQEQGEAAHKALLLEAIGELVGLQKASREGVLPEYDRETMLREINLFPEWFVAKELGRELTFKQRQLWQQTADTLLPPLLAQPKVYVHRDFIVRNLMLTRGRPGVLDFQDALYGPISYDLVSLLRDAFIEWEEEFVLDLVIRYWEKARAAGLPVPAEFDEFYRRFEWMGVQRHLKVAGIFARLYYRDGKDKYRPEIPRFLNYLRRVSRRYAELAPLYALLVELVGDEELETGFTF | not soluble |
| MFGKGGLGNLMKQAQQMQEKMQKMQEEIAQLEVTGESGAGLVKVTINGAHNCRRVEIDPSLLEDDKEMLEDLVAAAFNDAARRIEETQKEKMASVSSGMQLPPGFKMPF | soluble |
| MIHITSQACFLWHTTINKICNRPMFNPLTIRFWGVRGSIPCPGSHTVRYGGNTPCVEIQANGQRIILDGGTGLRVLGEHLMGQQPVTAHLFFTHTHWDHIQGFPFFQPAFVPGNQFHIYAVPGKNGQGIERRLNDQMLHPNFPVPLQIMGGDLRFYDLEVGERVHLGDGVVVSNEALNHPGGGVGYRVSWQGIHVAYITDTEHLPDRLHPGAFALADHADVMIYDATYTDEEYYHPQQSKVGWGHSTWQEAVKLAQAAQVKQLILFHHDPSHDDDCLDRIGELARAQFPQTLLAREGLIISVYPNVIHFPATPQASLEHHHHHH | not soluble |
| MNKVSVVLPTYNCGTYVGVAVESVLQQTYSNYELIIVNDGSTDETDQALAPYLCNNGHIRYIKQGNKGHAGARNTGIRAATGDVIAFIDSDDKWLPEKLGEQVQAMEEDPEVGLVHCNVYGFGENQEVQVRGPLLTQEQLQGYSGYIFDNLYFRKIIITTTTVMIRKSCIDDVGMFDENMTRYGSEDRELFLRILWKYKARYVNKPLAMYRNRSDSEGQNYERMIKGQEYVYEKITSLYGLPQSSKRAVMSKMYQEWAREFYAKGRFADGLTNQVKAIRANPIDMNAYFALKRYARFLFSRATLEHHHHHH | not soluble |
| MEQQIQMDEQENDESQGNDDQQNMSMSSSELHTMQDDHPGILLKTNTRMSITVKKLHVCGEWKWLQGGEDTCGICRMEFESACNMCKFPGDDCPLVLGICRHAFHRHCIDKWIAAPTNQPRAQCPLCRQDWTIVE | not soluble |
| SLAQLDKNDPARGVLAAIAANASKIAEYDPRVRADEYDSVHQMRVATRELRSHLQTFEGILGGEDYLNLEKELKVLANILGRARDAEVVEERLSNLINTEVGDSIEEETKKELLEDLGAEYRREHERVVRALDNDRYTDLLQALENLLVDPPLITEVEEPEATEAPESAETTESTDVSEATEEADAEAESVEEATEQEESADAPESADLDALDEEYSPGSQAPVEEPKEPKKVDAALVLLEHLDKAHVKLVKLEKKARSQWDDLSIPMLEREENFHNLRKAAKKLRYSAEAVGKATTVETKKLYKACSGLQSVLGDYQDAITSRNELLRRAQVARRQGRDTFAYGILYQHEQTLSREYLTGYSDAFKSVEKAYAKLAEDTAKRSKKNKRK | soluble |
| AHHHHHHASAKWVCKICGYIYDEDAGDPDNGISPGTKFEELPDDWVCPICGAPKSEFEKLEDGSGTREIIIDCYLHDMCEGLNIMTVRGSAYLLVGQNVYPLIEGIVPPTLHFYIKEGYLDIYGFWRVEGEEHAAHIRVAIDKVHVVGTSIIVEPHGALENFDASVVIKLDASEKDLEQLKKIINEEKFWTKEEHGEVISTYLEKHLREKRKKKE | soluble |
